Data from patent publication US20230194525A1, “PEPTIDE BASED PROBES FOR THE DETECTION OF SARS-COV-2” (priority 2021, published 2023).
The star is where a group is joined. FITC = O=C1OC2(c3ccc(O)cc3Oc3cc(O)ccc32)c2ccc(NC(=S)*)cc21; DABSYL = CN(C)c1ccc(/N=N/c2ccc(S(=O)(=O)*)cc2)cc1

B1: {Lys(DABSYL)}QELAAIEWELAANERELAAIEGCFNKTFLDKFNHEAEDLFYQSSLARIAALKYKNAALKKKIA{LYS(FITC)} (peptide)
chain: K(DABSYL)QELAAIEWELAANERELAAIEGCFNKTFLDKFNHEAEDLFYQSSLARIAALKYKNAALKKKIAK(FITC)
B2: {Lys(DABSYL)}QELAAIEWELAANERELAAIEGCFNKTFLDKFNHEAEDLFYQSSLARIAALKYKNAALK{LYS(FITC)} (peptide)
chain: K(DABSYL)QELAAIEWELAANERELAAIEGCFNKTFLDKFNHEAEDLFYQSSLARIAALKYKNAALKK(FITC)
B3: {Lys(DABSYL)}QELAAIEWELAANERELAAIEGCFNKTFLDKFNHEAEDLFYQSSLARIAALKYKNAALKKKIAALKQ{LYS(FITC)} (peptide)
chain: K(DABSYL)QELAAIEWELAANERELAAIEGCFNKTFLDKFNHEAEDLFYQSSLARIAALKYKNAALKKKIAALKQK(FITC)

These molecules were tested against L subunits (L1, L2, L3) (assay: Titration of R units against L subunits, fluorescence intensity after 2 hours). Conditions: R 400 nM to 100 pM against 50 nM L in 1×PBS, pH 7.4, 20-25° C., only rank order given.
Format: binding
Procedure: Residual fluorescence can be due to remaining unreacted L subunits.
In FIG. 4B, R units (400 nM to 100 pM in 1×PBS, pH 7.4) are titrated against 50 nM of L subunits in 1×PBS, pH 7.4 at 20-25° C. and the fluorescence intensities measured after 2 hours. […] All the measurements were performed in triplicates (n=3) and the error bar represents the standard deviation of the data. Statistical analysis was performed using Unpaired t test in GraphPad software and the calculated P is represented as follows: **P<0.01.

Molecule	affinity of R subunits toward L subunits (Kd values), preferential order
B1	RL3>RL1>RL2
B2	RL3>RL1>RL2
B3	RL3>RL1>RL2
